Results on six molecules are retold here after publication PMC9482650, “Quantitative fragmentomics allow affinity mapping of interactomes” (Nature Communications, 2022).

For one test, the system named is HaCat cell extract preys. In words: PDZ-AP-MS, biotinylated MBP-PDZ baits. The note with it: for Difference log2: enrichment of prey; for Ratio SNX27/MBP: bait SNX27 PDZ. It counts as binding, human. On the procedure:
(§1) For PDZ-AP-MS experiments, PDZ domains were cloned as His6-AviTag-MBP-PDZ constructs. For co-expression with BirA, E. coli BL21(DE3) cells were co-transformed with His6-AviTag-MBP, or His6-AviTag-MBP-PDZ-coding and PET21a-BirA (Addgene #20857) plasmids. Simultaneously to IPTG induction, 50 µM biotin was added to the media. After cell harvesting, the lysis buffer was also supplemented with 50 µM biotin. Otherwise, expression and double affinity purification was identical as previously described in details.
(§2) For PBM-AP-MS experiments, 30 μl streptavidin resin was mixed with biotin or peptide at 50–60 μM concentration in 6–6.5 resin volume for 60 min to achieve resin saturation. For PDZ-AP-MS experiments, 30 μl streptavidin resin was mixed with biotinylated MBP or MBP-PDZ at 40-50 μM concentration in >1000× resin volume for 60 min to achieve resin saturation. After saturation, resins were washed a single time (ten resin volume, holdup buffer), and were depleted with biotin (1 mM biotin, 5–10 resin volume, 10 min). Finally, resins were washed two times. 0.5 ml 2 mg/ml cell lysate was added to the dry resin (1 mg total input) and were incubated at 4 °C for 2 h. Then, the beads were washed three times with 10 resin volume buffer containing: 50 mM TRIS pH 8.5, 150 mM NaCl, 1% TritonX-100, 10× complete EDTA-free protease inhibitor cocktail, 2 mM EDTA, 1 mM TCEP. Then, the beads were washed two times with ten resin volume buffer containing: 50 mM TRIS pH 8.5, 150 mM NaCl, 1 mM TCEP. Finally, captured protein was eluted from the resin in two steps and the eluted fractions were pooled. For each elution the beads were incubated for 30 min with three resin volume buffer containing: 20 mM TRIS pH8.5, 100 mM NaCl, 500 μM TCEP, 8 M Urea. Between each step, the beads were separated by mild centrifugation and the supernatant was removed by gentle pipetting.
(§3) The samples were precipitated with TCA 20% overnight at 4 °C and centrifuged at 14,000 rpm for 10 min at 4 °C. The protein pellets were washed twice with 1 mL cold acetone and air dried. The protein extracts were solubilized in urea 8 M, reduced with 5 mM TCEP for 30 min, and alkylated with 10 mM iodoacetamide for 30 min in the dark. Double digestion was performed at 37 °C with 500 ng endoproteinase Lys-C for 4 h, followed by fourfold dilution and an overnight digestion with 500 ng trypsin. Peptide mixtures were then desalted on C18 spin-column and dried on Speed-Vacuum.
(§4) Samples were analyzed using an Ultimate 3000 nano-RSLC (Thermo Scientific, San Jose California) coupled in line with a LTQ-Orbitrap ELITE mass spectrometer via a nano-electrospray ionization source (Thermo Scientific, San Jose California). Peptide mixtures were injected in 0.1% TFA on a C18 Acclaim PepMap100 trap-column (75 µm ID × 2 cm, 3 µm, 100 Å, Thermo Fisher Scientific) for 3 min at 5 µL/min with 2% ACN, 0.1% FA in H2O and then separated on a C18 Accucore nano-column (75 µm ID × 50 cm, 2.6 µm, 150 Å, Thermo Fisher Scientific) at 220 nl/min and 38 °C with a 90 min linear gradient from 5% to 30% buffer B (A: 0.1% FA in H2O/B: 99% ACN, 0.1% FA in H2O), regeneration at 5% B. The mass spectrometer was operated in positive ionization mode, in data-dependent mode with survey scans from m/z 350–1500 acquired in the Orbitrap at a resolution of 120,000 at m/z 400. The 20 most intense peaks from survey scans were selected for further fragmentation in the Linear Ion Trap with an isolation window of 2.0 Da and were fragmented by CID with normalized collision energy of 35%. (TOP20CID method) Unassigned and single charged states were excluded from fragmentation. The Ion Target Value for the survey scans (in the Orbitrap) and the MS2 mode (in the Linear Ion Trap) were set to 1E6 and 5E3 respectively and the maximum injection time was set to 100 ms for both scan modes. Dynamic exclusion was set to 20 s after one repeat count with mass width at ±10 ppm. […]

Another test deals with HeLa cell extract preys. Description: PDZ-AP-MS, biotinylated MBP-PDZ baits. It counts as binding, human. The conditions noted are these: for Ratio: fold enrichment of prey; for Difference: log2 enrichment of prey. As to the method:
as §1, §2, §3, §4

Setting [1] is: bait SCRIB_2 PDZ (biotinylated MBP-PDZ) vs MBP control.
[2] abbreviates: bait SCRIB_2 PDZ vs MBP control.

B1: HSPD1 (protein, UniProt P10809 27-573, looked up)
60 kDa heat shock protein, …: AKDVKFGADARALMLQGVDLLADAVAVTMGPKGRTVIIEQSWGSPKVTKDGVTVAKSIDLKDKYKNIGAKLVQDVANNTNEEAGDGTTTATVLARSIAKEGFEKISKGANPVEIRRGVMLAVDAVIAELKKQSKPVTTPEEIAQVATISANGDKEIGNIISDAMKKVGRKGVITVKDGKTLNDELEIIEGMKFDRGYISPYFINTSKGQKCEFQDAYVLLSEKKISSIQSIVPALEIANAHRKPLVIIAEDVDGEALSTLVLNRLKVGLQVVAVKAPGFGDNRKNQLKDMAIATGGAVFGEEGLTLNLEDVQPHDLGKVGEVIVTKDDAMLLKGKGDKAQIEKRIQEIIEQLDVTTSEYEKEKLNERLAKLSDGVAVLKVGGTSDVEVNEKKDRVTDALNATRAAVEEGIVLGGGCALLRCIPALDSLTPANEDQKIGIEIIKRTLKIPAMTIAKNAGVEGSLIVEKIMQSSSEVGYDAMAGDFVNMVEKGIIDPTKVVRTALLDAAGVASLLTTAEVVVTEIPKEEKDPGMGAMGGMGGGMGGGMF
Consider B1, for which the “Difference log2” value in the test on HaCat cell extract preys (bait DLG1_1 PDZ vs MBP) was determined as 6.29. The “Ratio DLG1_1/MBP” value in the test with HaCat cell extract preys (bait DLG1_1 PDZ, fold change of prey) stood at 78.233. For the same molecule, in the test on HeLa cell extract preys (bait TX1BP3 PDZ vs MBP control), the Ratio was 104.688 and the Difference turned out to be 6.71.

B2: DARS1 (protein, UniProt P14868 1-501, looked up)
Aspartate--tRNA ligase, …: MPSASASRKSQEKPREIMDAAEDYAKERYGISSMIQSQEKPDRVLVRVRDLTIQKADEVVWVRARVHTSRAKGKQCFLVLRQQQFNVQALVAVGDHASKQMVKFAANINKESIVDVEGVVRKVNQKIGSCTQQDVELHVQKIYVISLAEPRLPLQLDDAVRPEAEGEEEGRATVNQDTRLDNRVIDLRTSTSQAVFRLQSGICHLFRETLINKGFVEIQTPKIISAASEGGANVFTVSYFKNNAYLAQSPQLYKQMCICADFEKVFSIGPVFRAEDSNTHRHLTEFVGLDIEMAFNYHYHEVMEEIADTMVQIFKGLQERFQTEIQTVNKQFPCEPFKFLEPTLRLEYCEALAMLREAGVEMGDEDDLSTPNEKLLGHLVKEKYDTDFYILDKYPLAVRPFYTMPDPRNPKQSNSYDMFMRGEEILSGAQRIHDPQLLTERALHHGIDLEKIKAYIDSFRFGAPPHAGGGIGLERVTMLFLGLHNVRQTSMFPRDPKRLTP
Regarding B2, the “Difference log2” value in the test on HaCat cell extract preys (bait SCRIB_2 PDZ vs MBP) is on record as 3.605. In addition, in the test on HaCat cell extract preys (bait SCRIB_2 PDZ, fold change of prey), the “Ratio SCRIB_2/MBP” value was found to be 12.1719.

B3: FUS (protein, UniProt P35637 1-526, looked up)
RNA-binding protein FUS: MASNDYTQQATQSYGAYPTQPGQGYSQQSSQPYGQQSYSGYSQSTDTSGYGQSSYSSYGQSQNTGYGTQSTPQGYGSTGGYGSSQSSQSSYGQQSSYPGYGQQPAPSSTSGSYGSSSQSSSYGQPQSGSYSQQPSYGGQQQSYGQQQSYNPPQGYGQQNQYNSSSGGGGGGGGGGNYGQDQSSMSSGGGSGGGYGNQDQSGGGGSGGYGQQDRGGRGRGGSGGGGGGGGGGYNRSSGGYEPRGRGGGRGGRGGMGGSDRGGFNKFGGPRDQGSRHDSEQDNSDNNTIFVQGLGENVTIESVADYFKQIGIIKTNKKTGQPMINLYTDRETGKLKGEATVSFDDPPSAKAAIDWFDGKEFSGNPIKVSFATRRADFNRGGGNGRGGRGRGGPMGRGGYGGGGSGGGGRGGFPSGGGGGGGQQRAGDWKCPNPTCENMNFSWRNECNQCKAPKPDGPGGGPGGSHMGGNYGDDRRGGRGGYDRGGYRGRGGDRGGFRGGRGGGDRGGFGPGKMDSRGEHRQDRRERPY
For the molecule B3, the Difference with HeLa cell extract preys (setting [1]) was found to be 4.68. In addition, the Ratio in the test on HeLa cell extract preys (setting [2]) worked out at 25.6321.

B4: CAV1 (protein, UniProt Q03135 2-178, looked up)
Caveolin-1: SGGKYVDSEGHLYTVPIREQGNIYKPNNKAMADELSEKQVYDAHTKEIDLVNRDPKHLNDDVVKIDFEDVIAEPEGTHSFDGIWKASFTTFTVTKYWFYRLLSALFGIPMALIWGIYFAILSFLHIWAVVPCIKSFLIEIQCISRVYSIYVHTVCDPLFEAVGKIFSNVRINLQKEI
As to B4, the “Difference log2” value in the test with HaCat cell extract preys (bait SNX27 PDZ vs MBP) is given as 8.5897. In addition, the “Ratio SNX27/MBP” value with HaCat cell extract preys (fold change of prey) came out at 385.263.

B5: CAVIN1 (protein, UniProt Q6NZI2 1-390, looked up)
Caveolae-associated protein 1: MEDPTLYIVERPLPGYPDAEAPEPSSAGAQAAEEPSGAGSEELIKSDQVNGVLVLSLLDKIIGAVDQIQLTQAQLEERQAEMEGAVQSIQGELSKLGKAHATTSNTVSKLLEKVRKVSVNVKTVRGSLERQAGQIKKLEVNEAELLRRRNFKVMIYQDEVKLPAKLSISKSLKESEALPEKEGEELGEGERPEEDAAALELSSDEAVEVEEVIEESRAERIKRSGLRRVDDFKKAFSKEKMEKTKVRTRENLEKTRLKTKENLEKTRHTLEKRMNKLGTRLVPAERREKLKTSRDKLRKSFTPDHVVYARSKTAVYKVPPFTFHVKKIREGQVEVLKATEMVEVGADDDEGGAERGEAGDLRRGSSPDVHALLEITEESDAVLVDKSDSD
On to B5, for which, in the test with HaCat cell extract preys (bait SNX27 PDZ vs MBP), the “Difference log2” value is listed as 7.364. Further, the “Ratio SNX27/MBP” value with HaCat cell extract preys (fold change of prey) is recorded as 164.68.

B6: SFPQ (protein, UniProt P23246 1-707, looked up)
Splicing factor, proline- and …: MSRDRFRSRGGGGGGFHRRGGGGGRGGLHDFRSPPPGMGLNQNRGPMGPGPGQSGPKPPIPPPPPHQQQQQPPPQQPPPQQPPPHQPPPHPQPHQQQQPPPPPQDSSKPVVAQGPGPAPGVGSAPPASSSAPPATPPTSGAPPGSGPGPTPTPPPAVTSAPPGAPPPTPPSSGVPTTPPQAGGPPPPPAAVPGPGPGPKQGPGPGGPKGGKMPGGPKPGGGPGLSTPGGHPKPPHRGGGEPRGGRQHHPPYHQQHHQGPPPGGPGGRSEEKISDSEGFKANLSLLRRPGEKTYTQRCRLFVGNLPADITEDEFKRLFAKYGEPGEVFINKGKGFGFIKLESRALAEIAKAELDDTPMRGRQLRVRFATHAAALSVRNLSPYVSNELLEEAFSQFGPIERAVVIVDDRGRSTGKGIVEFASKPAARKAFERCSEGVFLLTTTPRPVIVEPLEQLDDEDGLPEKLAQKNPMYQKERETPPRFAQHGTFEYEYSQRWKSLDEMEKQQREQVEKNMKDAKDKLESEMEDAYHEHQANLLRQDLMRRQEELRRMEELHNQEMQKRKEMQLRQEEERRRREEEMMIRQREMEEQMRRQREESYSRMGYMDPRERDMRMGGGGAMNMGDPYGSGGQKFPPLGGGGGIGYEANPGVPPATMSGSMMGSDMRTERFGQGGAGPVGGQGPRGMGPGTPAGYGRGREEYEGPNKKPRF
For the molecule B6, the Ratio is recorded as 33.0339 in the test on HeLa cell extract preys (bait DLG1_1 PDZ vs MBP control) and 39.0318 in the test with HeLa cell extract preys (setting [2]). Also, the Difference was 5.046 in the test on HeLa cell extract preys (bait DLG1_1 PDZ vs MBP control) and 5.287 in the test with HeLa cell extract preys (setting [1]).
